The data set can be described thus: yeast display, Sf9 membrane polyspecificity reagent, FACS + sequencing; frameworks hold sequencing errors. In outline:
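Using colony PCR, genes from sorted yeast display clones were amplified, then sequenced on MiSeq at 2 × 250 and filtered by CDR length. The clones had been stained with 10% biotinylated, detergent-solubilized Sf9 membrane reagent for 1 hour at 4 °C and sorted by FACS into low and high (top ~1%) gates on anti-HA and streptavidin fluorescence. Polyreactivity labels come from the gate of origin.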
On to “QVQLVESGGGLVQAGGSLRLTCAASGLIFYDNMGWYRQEPGKQRELVAAITVSGGATYYADSVKGRFTISRDNAKNTVYLQMNSLKTEDTAVFYCARELLSPTYQRWYYYWGQGTQVTVSS”, for which the “polyreactivity (PSR sort gate)” value is on record as “low polyreactivity”.

“QVQLVESGGGLVQAGGSLRLSCAASGSIFYFNGMGWYRQAPGKERELVAAITWGDGSTYYADSVKGRFTISRDNAKNTVYLQMNSLKREDNAVYYCAAVLLIFKYVPRYDYWGQGTQVTVSS”: the “polyreactivity (PSR sort gate)” value is reported as “low polyreactivity”. Next, “QVQLVESGGGLVQAGGSLRLSCAASGYTFTRYAMGWYRQAPGKEREFVAAITSGGGSTYYADSVKGRFTISRDNAKNTVYLQMNSLKPEDTAVYYCAADLTSLWYTVQLELDFWGQGTQVTVSS”: “low polyreactivity”. On to “QVQLVESGGGLVQAGGSLRLSCAASGRTFVKYAMGWYRQAPGKERELVAAISWSGGSTYYADSVKGRFTISRDKAKNTVYLQMNSLKPEDTAVYYCAAPSSRGQGRNFDYWGQGTQVTVSS”, for which the “polyreactivity (PSR sort gate)” value was “high polyreactivity”. Consider “QDQLVESGGGLVQAGGSLRLSCASSGSTFNIYAMGWYRQAPGKERELVAAITSRGTSTYYADSVKGRFTISRDNAKNTVYLQMNSLKPEDTAVYYCAAEVSGNYYRYNYWGQGTQVTVSS”, for which the “polyreactivity (PSR sort gate)” value is on record as “high polyreactivity”. In the case of “QVQLVESGGGLVQAGGSLRLSCAASGRTFSPYPMGWYRQAPGKERELGAAINWTGGSTYYADSVKGRFTISRDNAKNTVYLQMNSLKPEVTAVYYCNADWWYGYDYWGQGTQVTVSS”, the “polyreactivity (PSR sort gate)” value was “low polyreactivity”. For the sequence “QVQLVESGGGLVQAGGSLRLSCAASGSIFGLNAMGWYRPEPGQESALVAAISYSGGTTYYADSVKGRFTISRDNAKNSVYLQMNSLKPEDTAVYYCATRARYVGGYKYNYWGQGTQVTVSS”, the “polyreactivity (PSR sort gate)” value is listed as “high polyreactivity”. Turning to “QVQLVESGGGLVQAGGSLRLSFAASGSIFYYYVMGWYRQAPGKERELVASIRAGGDNTYYADSVKGRFTISRDSAKNTVYLQMNRLKPEDSEVYYCAKSRGRRRLYPHRYGHDYWGQGTQVTVSS”, the “polyreactivity (PSR sort gate)” value is “low polyreactivity”. In the case of “QVQLVESGGGLVQAGGSLRLSCAASGRIFRHNTMGWYLQAPGKERELVAAIRYSGGRTYYADSVKGRFTLSRDTAKNTFYLQMNSLKPEDTAVYYCAATYFAAVYSSWYWFDYWGQGTQVTVSS”, the “polyreactivity (PSR sort gate)” value was “high polyreactivity”. Under “PVQLVESGGGLVQAGGSLRLSCAASGFTFRPYAMGWYRPAPGTERELVAAITSGDSTNYADSVKGRFTISRDNAKKTVYLQMNSLKPEDTAVYYCAADSTGRPSVSYDYWGQGTQVTVSS” stands “low polyreactivity”. As for “QVHLVESGGGLGKAGGSLRLSSAASGRTFQYYTMGWYRQAPGKARELVAAIRRGGSTYYADSVKGRFTISRDNAKNTVYLQMYSLKPEDTAVYYCAALYAYSLTARGMEYWGQGTQVTVSS”, the “polyreactivity (PSR sort gate)” value was “high polyreactivity”. For “QVQLVETGGVLVQAGGSLRLSFAASGIIFSISALGGYRQAPGKERELVAAITYSGGRTYYADSVKGRFTISRDTAKNTVYLQMNSLKPEDTAVYYCAADYYYYGSYYPVEYWGQGTQVTVSS”, the “polyreactivity (PSR sort gate)” value was “high polyreactivity”. Under “QVQLVESGGGLFQAGGSLRLSCAASGSIFSKYAMAWYRQAPGKERELVAAITLNGGSTYYADSVKGRFTISRDNAKNTVYLQMNSLNPEDTAVYYCAKSDRPWWGYYYQFDYWGQGTQVTVSS” stands “low polyreactivity”; under “QVQLVESGGGLVQAGGSLRLSCAASGRIFSRYAMGWYRQAPGKERELVASIRITGSTYYADSVKGRFTISRDNAKTTVYLQMNSLKPEDTAVYYCAAYQYRLGNIRLNYWGQGTQVTVSS”, “high polyreactivity”. As to “QVQLVESGGGLVQAGGSLRLSCAASGFTFRYNAMGWYRQAPGKERELVAAITSDVSTNYADSVKGRFTISRDNAKNTVYLEMNSLKAEDTAVYYCAKGTAKRIVGRSPGNTYEDHYWGQGTEVTVSS”, the “polyreactivity (PSR sort gate)” value is given as “low polyreactivity”. As for “QVQLVESGGGLVQAGGSLRLSCAASGRTFYSNAMGWYRQAPGKERELVAAIRQSGGSTYYADSVKGRFTISRDNEKNSVYLQMNSLTPEDTAVYYCATGRHDSYKGSLYYYWGQGTQVTVSS”, the “polyreactivity (PSR sort gate)” value is “high polyreactivity”.

As for “QVQLVESGGGLVQAGGSLRLSCASSGSTFLAYAMGWDRQAPGKERELVAAISSRGSRTYYADSLKGRCTISRDTAKNTVYLQMNSLKPEDTAVYYCAARYPSGYYYWGQGTQVTVSS”, the “polyreactivity (PSR sort gate)” value was “high polyreactivity”. “QVHLVETGGGLVQAGGSPRLSCAASGRTLLDYGLGWYRQAPGKERELVAGITSSGGRSYADSVKGRLTISRDNAKNTVYLEMNSLKPEDSAGYYCAAYLNLSELLRYHYWGKGTQVTVSS”: the “polyreactivity (PSR sort gate)” value is “low polyreactivity”. As for “QVQLVESGGGVVQAGGSLRLSCAASGGTFGKYAMGWYRQAPGNEREFVAAISKSGGSTFYADSVKGRFTISRDNAKNTVYLQMNSLKPEDTAVYYCAVRWYYRGRSLYDYWGQGTQVTVSS”, the “polyreactivity (PSR sort gate)” value is on record as “high polyreactivity”. On to “QVQLVESGGGLVQAGGSLRLSCAASGRTFKSYSMGWYRQAPGKERELVAAISWSGGSTYYADSVKGRFTISRDNAKNTVYLQMNSLKPEDTAVYYCAKRGYASGSKWDYGYWGQGTQVTVSS”, for which the “polyreactivity (PSR sort gate)” value is “high polyreactivity”. As for “QVQLVESGGGLVQAGGSLRLSCAASGSIFYIYAMGWYRQAPGKERELVAAINWSGGDTYYADSVKGRFTISRDNAKNTVYLQMNSLKPEDTAVYYCAALLDSEYEYWGQGTQVTVSS”, the “polyreactivity (PSR sort gate)” value was “high polyreactivity”. Regarding “QVQLVESGGGLVQAGGSLRLSCAASGRIFAWYSMGWYRQAPGEERELVAGISWICGSTYNADSVKGRFTISRDNAKNTVYLQMNSLKPEDTAVYYCNARKKPGSLLDIIGYDYWGQGTQVTVSS”, the “polyreactivity (PSR sort gate)” value is “low polyreactivity”.

Take “QVQLVESGGGLVQAGGSLRVSCAASGIFPAYDMGWYRQAPGKDRELVASISADSGSTHYADSVKGRFTISRDNAKNTVYFQMNSLKPEDTAVYYCAADLGYRTGDYYWGQGTQVTVSS”: the “polyreactivity (PSR sort gate)” value is “low polyreactivity”. For “QVQVVESGGGLVQAGGSLRLSCAASGSIFHAYTMGWSRQAPGKERELVAAISRGDRTYYADSVKGRFTISRDNAKNTVSLQMNSLKPEDTAVYYCNRDRYRYDSWGQGTQLTVSS”, the “polyreactivity (PSR sort gate)” value is “high polyreactivity”. On to “PVQLVESGGGLDQAGGSLRLTCAASGSIFYYNAKGWYRQSPGKERELVAAISSDGGTYYADSVKARFTISRDNAKKTVYLQMNSLKPEDTAVYYCAASQPSTYDYWGQGTQLTVSS”, for which the “polyreactivity (PSR sort gate)” value is listed as “high polyreactivity”.

For “QVQLVESGGGLVQAGGSLRLSCAASGRIFPVNAMGRYRQAPGKERELVATISSGDITNYADSVKGRFTISRDNAKNTVYLQMNSLKPEDTAVYYCNADTSYSEWGSWYYEYDYWGQGTQVTVSS”, the “polyreactivity (PSR sort gate)” value is listed as “low polyreactivity”. As to “QVQLVESGGGLVQAGGSLRLSCAASGRIFNRYGMGWYRQAPGKERELVAAITWRGGNTYYADSVKGRFTISRDNAKNTVYLQMNSLKPEDTAVYYCAADGGYSAYFGAYDYWGQGTQVTVSS”, the “polyreactivity (PSR sort gate)” value is listed as “high polyreactivity”.

As for “QVQLVESGGGLVQAGGSLRLSCAASGRIFWRYAMGWYRQAPGKERELVAAITGRTGSTNYADSVKGRFTISRDNAKNTVYLQMNSLKPEDTAVYYCAAAHHRWTGLYPSGYEFDYWGQGTQVTVSS”, the “polyreactivity (PSR sort gate)” value is listed as “low polyreactivity”. Regarding “QVQRVESGGGLVQAGGSLRLSCPASGSTLYGYAMGWYRPSPGKERELVAGITRGGSTSYADSEKGRFTISRDNAKNTVYLQMNSLKPEDTAVYYCAARSYPGSPVRYDYWGQGTQVTVSS”, the “polyreactivity (PSR sort gate)” value is “high polyreactivity”. For the sequence “QVQLVESGGGLVQAGGSLRLSCAASGSIFYDNAMGWYRQAPGKERELVAVISNSGRTDYADSVKGRFTISRDNAKNTVYLQMNSLKPEDTAVYYCAAVVQGTTVWWGYDYWGQGTQVTVSS”, the “polyreactivity (PSR sort gate)” value is listed as “low polyreactivity”. Under “QVQLVESGGGLVQAGGRLRLSCAASGSIFLHNAMGWYRQAPGKERELVAAISGTGGRTYYADSVKGRFTISRDNAKNTVYLQMNSLKPEDTAVYYCAVVFYHRHSYYWGQGTQVTVSS” stands “high polyreactivity”; under “QVQLQESVGGQVQAGVSLRLICAASCTISQEDWMGWYRQAPAKEREFVAAIGLGSNTNYADSLKGRFTISRDNAKNTVDLQMNSLKPEDTAVYYCAVSVWQYSDHVYRGQGTQVTVSS”, “low polyreactivity”; under “QVQLVESGGGLVLAGGSLRLSCAASGITFFTYTMGWYRQAPGKERELVARIRWDGGSTYYADSVKGRFTISRDNAKNTVYLQMNSLKPEDTAVYYCAADYPYSTYDYWGQGTQVTVSS”, “low polyreactivity”.

Consider “QVQLVESGGGLVQAGGSLRLSCAASGITFPQNAMGWYRQAPGKERELVATIDNVGSTNYADSVKGRFTISRDNAKNTVYLQMNSLKPEDTAGYYCAKDYDWTLDYDGYPGYDYWGQGTQVTVSS”, for which the “polyreactivity (PSR sort gate)” value was “high polyreactivity”. As to “QVQLVESGGGLVQAGGSLRLSCAASGSIFVKYAMGWYRQAPGKERELVAAISRSGGSTYYADSVKGRFTISRDNAKNTVYLQMNSLKPEDTAVYYCAASNYKGMNYWGQGTQVTVSS”, the “polyreactivity (PSR sort gate)” value is reported as “high polyreactivity”.

Take “QVHLVESGGGLVQAGGSLRLSCAASGSTFYNNAMGWYRQAPGKERELVAAINYSGGSTNYADSVKGRFTISRDNAKNTVYLQMNILKPEDTAVYYCATDLHWLVTKYGYWGQGTQVTVSS”: the “polyreactivity (PSR sort gate)” value is reported as “low polyreactivity”. Next, “QVQLVESGGGFVQAGGSLRLSCAASGRTIPYYAMGWYRQARGKEWELVATISTGDSTYYADSVKGRFTISRDNAKNTLYLQMNSLKPEATAVYSCAKDRYTYWSVHAFRRLDYWGKGTQVTVSS”: “low polyreactivity”; “QVQLVESGGGLVQAGGSLPLICAASGSTSVVNAMGWYRQAHGKERELVATIPRVGRTYYADSVKGRFTISRDNAKNTVYLQMNSLKPEDTAVYYCASRLVGRSYKYDYWGQGTQVTVSS”: “high polyreactivity”; “QVQLVESGGGLVQAGGSLRLSCAASGRTFRGNVMGWYRQATGKEREFVAAITRSGSNTYYADSVKGRFTISRDYAKTTVYLQMNSLKPEDTAVYDCAKSVLLGYKRHDSWGQGTQVTVSS”: “high polyreactivity”. For “QVQLVESGGGLVQAGGSLRLSCAASGFIFGDNAMGWYRQAPGKERELVAAINSGSRTSYADSVKGRFTISRDNAKNTVFLQMNSLKPEDTAVYYCAAESVSSGDNASRYDFWGQGTQVTVSS”, the “polyreactivity (PSR sort gate)” value was “low polyreactivity”.

For the sequence “QVQLVESGGGLVQAGGSLRLSCAASGSIFYRYTMGWYRQAPVTERELVAVISRRGGSTYYADSVKGRFTISRDNEKNTVYLQMNRLKPEDTAVYYCAVPQYRTSVRQGNTLWDDYWGQGTQVTVSS”, the “polyreactivity (PSR sort gate)” value is “high polyreactivity”.

For the origin of these results see the nanobody polyreactivity screen of Harvey et al. (2022).
